Test results reported in the DeepSol protein solubility set.

Assay: soluble on expression in E. coli; label from the status in PepcDB or PDB records

Sequence | soluble on expression in E. coli
MKEKIPFYNEKEFHDMVKKTKKGTFSGWYIIDKDNKSVEFSGSFNRQFKLNKPVIPVNTEYVTRKEFNEYKVSNDQRLTKIETTLAAQGEQINKLTQTVEKQGEQINQLVQVVLLHGEQINKLTQTVEKQGEQIKELQVEQKAQGEQIKAQGKQIKAQGKTLKSILQALGGINKRLDKIDPPKLEHHHHHH | not soluble
MGSDKIHHHHHHMAAPAGGGGSAVSVLAPNGRRHTVKVTPSTVLLQVLEDTCRRQDFNPSEYDLKFQRTVLDLSLQWRFANLPNNAKLEMVPVSRSREGPENIVRIAFQLDDGSRLQDAFCSRQTLWELLSHFAQTRERLQQLGEKTPVCVYMRNEVTGRAALQNTTLQSLGLTGGSATIRFVIKQCDTAGKQESIAVRSKAPGSPVSSLSADQASSSTLLPLNSGEFSRGDLNHEGDANTSGTGLEGGPKPTDAQTKQSTSEPASAPFVPFSGGGQRLGGPSASLRPLTSPSANSSKSFSGPGGPSKPKKPKPGEEPQQEPEPPVDRDPVVYHPDLEDLLQPWPAEVPDEFFEVTVDDVRRRLAQLKSERKRLEEAPLVTKAFREAQMKEKLERYPKVALRVLFPDRYILQGFFRPSETVGDLRDFVRSHLGNPELSFYLFIAPPKMVLDDHTLTLFQANLFPAALVHFGAEEPTGLYLEPGLLEHTVSPSTADVLVARCMSRASGSPPLLPAPDPVSLESEPIAEDGALGPPEPIQGTAQPVKRSLGKVPKWLKLPASKR | not soluble
HHHHHHGSQEAPHFKPGEDPRQPHQEWKLIENMSDEFEGKKIDEKKWQISGQGWIGRAPGLFLAENISLNNGSLQITTTMLPEPIVKNNKTYTHGGGYVGSRNGMTYGYYECEMKANKTFMSSTFWLINEGKDRLGCDKRTTELDIQESVGQITNDADWMKYFDQTMNSNTHSRNIPEGCEYEKGSSKGKAELGGKAYEDFHVYGVWWKSKDEIIFFLDGKMQSKVTPPADFDIEMYLRMVVETYDWNPVPKDGGMTGSKEDRTTTYNWVRSWQLVDSKN | soluble
MKKIILTIGCPGSGKSTWAREFIAKNPGFYNINRDDYRQSIMAHEERDEYKYTKKKEGIVTGMQFDTAKSILYGGDSVKGVIISDTNLNPERRLAWETFAKEYGWKVEHKVFDVPWTELVKRNSKRGTKAVPIDVLRSMYKSMREYLGLPVYNGTPGKPKAVIFDVDGTLAKMNGRGPYDLEKCDTDVINPMVVELSKMYALMGYQIVVVSGRESGTKEDPTKYYRMTRKWVEDIAGVPLVMQCQREQGDTRKDDVVKEEIFWKHIAPHFDVKLAIDDRTQVVEMWRRIGVECWQVASGDF | soluble
MSLQSYADALSAKGYRSFGFDTDMEMDMDMGCTTMRRIEKRKGGDLADSPVDEKAEADVEVTNEISAPYEVPQFPIEQIEKKLQIQRHLNEKQATGPRPVATAAVLATNRESSSSTEGRESAVTMERNDADINFQRVSISGEDTSGVPLEDLERASTLLIEALRLRSHYMAMSDQSFPSTTARFLKTVKLKDRINNLPVKEVSESADVHLRHSPMKITNPWNVEFPNDEDFKIKPLNGVFHIYENDDESSEIKYEYPDMSQFVNDMQVMCNMIADGPLKSFCYRRLCYLSSKYQMHVLLNELRELAAQKAVPHRDFYNTRKVDTHIHAASCMNQKHLLRFIKKTLKNNANEVVTVTNGQQMTLAQVFQSMNLTTYDLTVDMLDVHADRNTFHRFDKFNSKYNPIGESRLREVFLKTDNYLNGKYFAQIIKEVAFDLEESKYQNAELRLSIYGKSPDEWYKLAKWAIDNDVYSSNIRWLIQIPRLFDIFKSNKMMKSFQEILNNIFLPLFEATARPSKHPELHRFLQYVIGFDSVDDESKPENPLFDNDVPRPEEWTYEENPPYAYYIYYMYANMTVLNKFRQSRNMNTFVLRPHCGEAGPVQHLVCGFLMAENISHGLLLRKVPVLQYLYYLTQIGIAMSPLSNNSLFLNYHRNPLPEYLARGLIISLSTDDPLQFHFTKEPLMEEYSIAAQVWKLSSCDMCELARNSVMMSGFPHAIKQQWLGPIYYEDGIMGNDITRTNVPEIRVAYRYETLLDELSNIFKVNQTCSIADMNATEGHHHHHH | soluble
GPGSMNCDQSPEAPCIVYICKLIDTQYLVGRVVGSVENHDGAFIGFGRVYSGRLRAGQPVYVHSDGVVVEATVGSVYLFRGAGLEETSEVSAGFLCGVGGLTPCITKYATISSVPNMPPFKPLVLQSTSIVRLSVFPKDPRSLQELERGLRLLYKVDPQVEVSMLPTGEHVIGTAGEVHAERCLKDLIDTFAQVEVVASEPLVSFRETIVSNLSAKPKPHTASLMDGAFHVTLQARPLPAEVLELIKDDGKNSGNNPQLLRQAVAALAEHRRFSADVKNGVVSSGPSRLGFLGAVLLANFDGTADPVACWATLQDWKESVVAGFQAACESGPMAQEPLYGVAFVVTNIFVDADSDISGGMVLPSVREACRAAMKLHPRRLVEPVYECTVYSSGFTQGKIYASLSRRRSEIVEEVPNEGSDLFYIRCWLPAVEAFGLQDELRVQTQGASTAQLQMSHWEVIDADPYFVPTTKEEFEEHGAEVATKNIAEQLLERIMRRKGLYRERVVENAEKQKFSLKGA | not soluble
MSLSQTTNIKEQTDTGLAPPAPAITTNSAAIEEQANSSIRKLYHTLNTMPNTSMADRISQISAYFKGTKYILGSLGEGPNARYDQFPRYRVDGFDCDTYVNTVLSLALANSLESFQECLKHTRYKNGKRSYINRNHFTSIDWNNYNQKRGLLKDITFSIRNEKKQPVALYANALINKPQWYNHKTIDTIRLQKQDKNEQEKRLVELKAKGKTLETSLSNVPYIPFTALFSENKPNLHLFSQIPNGAVIEIIRPNWDLRQQIGTELDISHLGFAIWINNELFFRQASSQYGKVVDVSLIDYLDKARSSPTIKGINIQVVLPEKPVSNGCQLFDIREGHHHHHH | soluble
MGSDKIHHHHHHMSFELHPRYLEVHLHGRLCGFLCEAGGNTRFVPTDEYRGDNERYTLSLSITLPTEIGREATSAVFDNAFHPAIYNTGGELPPYFAGLLPEGELRKRLESTRTNPEDKDDFGVLASAGNDLPGAIVVKPADVRALPGYVRTYGVTGGADNLEIAVVEGATEGAASVSGVQNKLALSTMRKGERYTLPTKGKVSDIIAKLPAKNDDSQVFNEYVSMHLAAAAGVNIAPIQVLPMSSIDVPDLADLMGKGLHYLAVERFDRAADGGLLHAEDGCQMLGRMPNRKYAKREEYIRLLAALYRLSPKGFENVRQFFLRQAVNTLIGNSDAHLKNFSVIYRDRKLPELSPAYDIVCVAALPNFTSYGQNVAIDEIQRKETMDLYEDIADKAGIPRRIATAAVKEAVSMAHAHWPGLLEKMGASQALRDVIAERLENLPLAKVGRPTRKGA | not soluble
SNAMSARKLFYLGPQGTFTHQAAVNAAQELARFEPQGFDLMPMDDVPQILDAAQHGDGWGIVAWENNVEGYVVPNLDALIDAKDLVGFARVGVNVEFDAYVAQGADPAEARIATAHPHGLAQCKRFIAEHRLSTQPATSNAAACRDLIPGEIAFGPAICGELYDITRIGTAIQDYQGAATDFLVLSPRAEVARLLAKPRAEANVEYESVLTLIPLVTGPGVLANLLDVFRDAGLNMTSFISRPIKGRTGTYSFIVTLDAAPWEERFRDALVEIAEHGDWAKTLAVYPRREHPNPPVTSWMLPQGGVRLDDSHLPDDWQNDETVRRELMW | soluble
MSLREIVWVHSQRIAPYKTLILNELRYYPLELDPTPFNALVFTSKNAVFSLLETLNNSPKLKTLQNIPAYALSEPTAKTLQDHHFKVAFIGKKAHGKEFAQEILPLLKGKSVLYLRAKEIASSLDTILLEHGIDFKQAVVYENKLKHLTLSEQNALKPKEKSVLIFTAISHAKAFLHYFEFLENYTAISIGNTTALYLQEQGIPSYIAKKPSLEACLELALNLKSEGHHHHHH | soluble
MSLVSLPGLPAMISEISKRNNLPTTAVEEALREALLKGYERFRRSQLMGHQFPEEYFNNFEVELDTEEEGFRVLSTKRIVEEVENSDQQISLKEVLEVAEEAQLGDEVVLDVTPEQKDFGRMAAIQTKQVLLQKLRDQQRKIIQEEFQDLEGTVLNARALRFERQSIIVAVQSSFGQPEVEAELPKREQLPNDNYRANSTFRVYLKRVREGSQRGPQLVVSRAAAGLVVDLFSVEVPEIEEEVVRIVAVAREAKPPSPSVGPRTKIAVDTLERDVDPVGACIGARGSRIHAVVNELRGEKIDVIRWSPDPATYIAQALSPARVDQVYLIHAEERHALVIVAEDQLSLAIGKEGQNVRLAARLTGWKIDIKDPETYARDKEAIEQSILERAAASAQARAEREAAEQEAQAKLEAEMAALEAEEAEELEETPEAIAEVEEEVEEWDQDQGPELGEEEELSLEHHHHHH | soluble
MDYHSNGNGINGMNGSSRHSADGPSTPTHSGNGHSNGEGNSTYWETAPAEMVELADKYNFTINEGSSIQQEALELRSVIRKDLTKKLKIKSGYSRIKLITSDRRQSEFLRYELSDLNEQIADLQEDLQALEMYNSGAFDEDVMYLDNLEDCDVENGPPSKLVILQLELEKELKVKRGLEQFLRGAPDKSKVHGDSQSLLDDSRAKIAMLRMQIERLSQEAPAVEGEPKTKVELAIDDLIIRFHKEKLIMDGSRNMIRILRSKRKPDSKAVDEAMNSYVIASEKADLIKLALLKYASSLPLEHDHRKYLI | not soluble
MSLSGSITVPNYSDTNRVPGLYFALDNSKANTASVTRRVLILGQTIAGSGAPNVATLSAGYSDAVAKYGAASQCARMVSAYRAIDAQGEVWVLPLADDTSAQAATGKVTVSGTATSAGTLPLYVGDQLISVAVDTGDTAATVAANIATATAAVSGLPAGASAAEGVVTFTALNKGQSGNDILLGVALLGTAGGQAVPDGLTIALTQFSGGTADPTTLATVLALQGERVYDLIIHPYTDSGSLTALKIWLNDTAGRWSPMLQLYGHAITAYRGTYGAATSLGLAQNDQHATIMPIGDSPSDPLTWAAQIGARTAMSMRSNPALPITAVSLTVMPPTDVGRYSSEQRNSLLYDGLSTFTVDDSGTVNIERLVTTYQTNASGLPDNSYLDIETMLTAEICMQDMRSYLAGQYGGCILVADGTKISAGAKATTAKLIGKACASRYRWQTTQLWVQNADNFAANIVAENAGNGVVKLLMPYDFANQLRIIAGSVQFVKSEGHHHHHH | soluble
MSDQLEASIKNILEQKTLKWIFVGGKGGVGKTTCSCSLAAQLSKVRERVLLISTDPAHNISDAFSQKFTKTPTLVEGFKNLFAMEIDSNPNGEGVEMGNIEEMLQNAAQNEGGSGGFSMGKDFLQSFAGGLPGIDEAMSFGEMIKLIDSLDFDVVVFDTAPTGHTLRLLQFPTLLEKVFTKILSLQGMFGPMMNQFGGMFGMGGGSMNEMIEKMTTTLESVKKMNAQFKDPNCTTFVCVCIAEFLSLYETERLIQELSKQGIDTHNIIVNQLLFPDTDANGTVSCRKCASRQAIQSKYLTDIDELYEDFHVVKLPLLEAEVRGGPAILQFSERMVDPEANKN | not soluble
MAHHHHHHMFTKFLSRVKAMPPRSGDWANKLGPVALMGCSVGAHMSSTKLLNHFYTSSRDCDMYAELTFHEPGPVECPPETVIFFPVIQCGEMLDEKGEPSEATKDDWYLAMTESTTELLEKGYVPVSVGGDGSATLAMVEAYKRLFRSSEVVLIHCSARPSLEKAEQPIRVLLEKDLLKGVVEIGNRCVSSGDRKIRKQHKVMYMDMQAIYAKGLFCIRDIRNDYPVFLSIDADVLDPAFAPGVESPVPGGFSTRDLLHIMTGIRGPKVAGIDIHGYHPSLDMCRSDGVGLTQMALTKVLKESIVKAYTISTQTAEEGLERVRLMQRQGTLSDNPYPDH | not soluble
MMTYDRNRNAITTGSRVMISGTGHTGIIKAIESEGLDAGQIRRGKTVIVEGCEGKFAPVELIRLGMN | not soluble
